What was measured:
COBRA HA TJ2 = COBRA HA TJ2 (COBRA TJ2, designed from influenza A …); test: BLI; settings: both partners purified
COBRA HA J4 = COBRA HA J4 (COBRA J4, designed from influenza A …); test: BLI; settings: both partners purified

B1: mAb TJ5-13 (antibody, V domains shown)
V domain 1: QVQLVQSGAEVKKPGSSVKVSCEASGDTFTTYSGINWVRQAPGQGLEWMGGVLPNFGSPNYAQRFQGRITITVDRSTSLVHMELTNLRSDDTAVYYCTETGAYNSVGYFPYFQFRGQGTLVSVSS
V domain 2: QSVLTQPPSVSGAPGQRVTISCTGSSSNIGADYDVHWYQQLPGTAPKLLIFGNNNRPSGVPDRFSGSKSGTSASLAITGLQAEDEADYYCQSFDKSLSGSFVFGTGTKVTGQ
COBRA HA TJ2
  Kd: 0.05 nM
  koff: 8.68e-06 s⁻¹
  kon: 159000 M⁻¹ s⁻¹
COBRA HA J4
  Kd: 0.26 nM
  koff: 3.06e-05 s⁻¹
  kon: 120000 M⁻¹ s⁻¹

B2: mAb TJ5-1 (antibody, V domains shown)
VH: EVQLVQSGAEVKKPGASVKVSCKASGYTFTGFYLHWVRQAPGQGLEWMGWINPHSGDTDFAQKFQGKVTMTRDTSSNTVYMDVNRLTSDDTAVYYCVKNDIVLGMGVWGQGTTVIVSS
VL: QSVLTQPPSVSGAPGQRVTISCTGSSSNIGAGYNVYWFQQLPPTAPKLLNYGDNNRPSGVPDRFSASKSGTSASLAITGLQAEDEAEYYCQSYDSSLNAYVFGTGTKVTVL
COBRA HA TJ2
  Kd: 5.64 nM
  koff: 0.00348 s⁻¹
  kon: 230000 M⁻¹ s⁻¹
COBRA HA J4
  Kd: 0.23 nM
  koff: 6.67e-05 s⁻¹
  kon: 284000 M⁻¹ s⁻¹

B3: mAb #1664 (antibody, V domains shown)
VH: EVQVMQSGAEARMTGATVKISCKASGYTFSDYFLHWVKQAPGKGLEWMGLVDVDNGEVRYAEKFQGRVTITADTSTETAYLEMTTVTSGDTAVYYCASTTPRGGNPSVYNYFFVDVWGKGTTVTVSS
VL: QPVLTQSSSASASLGSSVKLTCTLSSGHDNYIIAWHQQQPGKAPRYLMQVGAGGTYNKGSGVPHRFSGSSSGADRYLTISNLQSDDEADYYCETWDSKTVFGGGTTLTVL
COBRA HA TJ2
  Kd: 0.45 nM
  koff: 5.44e-05 s⁻¹
  kon: 121000 M⁻¹ s⁻¹
COBRA HA J4
  Kd: 15.2 nM
  koff: 0.000454 s⁻¹
  kon: 30100 M⁻¹ s⁻¹

Reference: PMC12455949 (Journal of Virology, 2025)
